Paper PMC8604404, “Kinesin-binding protein remodels the kinesin motor to prevent microtubule binding” (Science Advances, 2021)
Each block holds one binder with its values, some of them ahead of it.

B1: His6-KIF15-N375 (KIF15 motor domain, amino acids 1 to 375) (domain or fragment, human, UniProt Q9NS87 1-375, looked up)
chain: MAPGCKTELRSVTNGQSNQPSNEGDAIKVFVRIRPPAERSGSADGEQNLCLSVLSSTSLRLHSNPEPKTFTFDHVADVDTTQESVFATVAKSIVESCMSGYNGTIFAYGQTGSGKTFTMMGPSESDNFSHNLRGVIPRSFEYLFSLIDREKEKAGAGKSFLCKCSFIEIYNEQIYDLLDSASAGLYLREHIKKGVFVVGAVEQVVTSAAEAYQVLSGGWRNRRVASTSMNRESSRSHAVFTITIESMEKSNEIVNIRTSLLNLVDLAGSERQKDTHAEGMRLKEAGNINRSLSCLGQVITALVDVGNGKQRHVCYRDSKLTFLLRDSLGGNAKTAIIANVHPGSRCFGETLSTLNFAQRAKLIKNKAVVNEDTQG
notes: No cleavage of the tag is described; also called KIF15 (1 to 375); source: E. coli BL21-DE3, purified (Ni-NTA, Superdex 200)

Assays:
Conditions in all cases: both partners purified
[1] = molecular target: T1, Kinesin-binding protein (KIFBP), wild type (UniProt Q96EK5 1-621); test: SEC; kinesin motor domain mixed with equimolar KIFBP, Superose 6, 10 mM K-Hepes pH 7.7, 50 mM KCl, 1 mM DTT, 0.2 mM MgATP; fractions analysed by SDS-PAGE
T1 construct: also called KIFBP-WT; WT-KIFBP; source: E. coli BL21-DE3, purified (glutathione-Sepharose, PreScission cleavage, Superdex 200)
T1 sequence (looked up): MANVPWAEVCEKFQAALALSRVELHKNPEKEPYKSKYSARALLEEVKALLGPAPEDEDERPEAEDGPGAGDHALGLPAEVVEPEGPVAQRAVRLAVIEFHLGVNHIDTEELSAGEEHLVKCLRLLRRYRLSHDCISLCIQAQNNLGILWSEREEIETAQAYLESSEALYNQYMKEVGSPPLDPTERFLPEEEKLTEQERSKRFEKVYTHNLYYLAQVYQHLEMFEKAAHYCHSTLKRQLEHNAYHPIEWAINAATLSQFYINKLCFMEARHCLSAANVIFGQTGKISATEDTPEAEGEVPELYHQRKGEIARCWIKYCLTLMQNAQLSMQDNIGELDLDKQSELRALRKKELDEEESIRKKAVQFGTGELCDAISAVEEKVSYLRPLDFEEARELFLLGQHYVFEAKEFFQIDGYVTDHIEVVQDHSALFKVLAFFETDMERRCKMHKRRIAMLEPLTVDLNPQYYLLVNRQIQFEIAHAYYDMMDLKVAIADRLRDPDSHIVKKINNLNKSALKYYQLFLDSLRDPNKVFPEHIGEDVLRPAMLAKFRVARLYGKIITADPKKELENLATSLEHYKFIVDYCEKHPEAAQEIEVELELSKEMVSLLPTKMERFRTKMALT

[2] = molecular target: T1, Kinesin-binding protein (KIFBP), wild …; test: pull-down; His6-kinesin motor domain immobilised on Ni-NTA agarose, 20 ug KIFBP protein or GST in 200 ul, 10 mM Hepes pH 7.4, 50 mM KCl, 10 mM imidazole, 30 min at 4°C; Coomassie gel, ratio of KIFBP to kinesin in the pellet
[3] = molecular target: B1; test: as above

Binder: B1
- binding result [1]: binds

- binding result [2]: binds
B2: His6-KIF18A-N363 (KIF18A motor domain, amino acids 1 to 363) (domain or fragment, human, UniProt Q8NI77 1-363, looked up)
chain: MSVTEEDLCHHMKVVVRVRPENTKEKAAGFHKVVHVVDKHILVFDPKQEEVSFFHGKKTTNQNVIKKQNKDLKFVFDAVFDETSTQSEVFEHTTKPILRSFLNGYNCTVLAYGATGAGKTHTMLGSADEPGVMYLTMLHLYKCMDEIKEEKICSTAVSYLEVYNEQIRDLLVNSGPLAVREDTQKGVVVHGLTLHQPKSSEEILHLLDNGNKNRTQHPTDMNATSSRSHAVFQIYLRQQDKTASINQNVRIAKMSLIDLAGSERASTSGAKGTRFVEGTNINRSLLALGNVINALADSKRKNQHIPYRNSKLTRLLKDSLGGNCQTIMIAAVSPSSVFYDDTYNTLKYANRAKDIKSSLKSNV
notes: No cleavage of the tag is described; also called KIF18A (1-363); source: E. coli BL21-DE3, purified (Ni-NTA, Superdex 200)

- fold reduction in binding against KIFBP-WT [3]: 2 fold
B3: KIFBP-L14^m (Loop-14 mutant of KIFBP) (natural protein, UniProt Q96EK5 1-621, looked up)
chain: MANVPWAEVCEKFQAALALSRVELHKNPEKEPYKSKYSARALLEEVKALLGPAPEDEDERPEAEDGPGAGDHALGLPAEVVEPEGPVAQRAVRLAVIEFHLGVNHIDTEELSAGEEHLVKCLRLLRRYRLSHDCISLCIQAQNNLGILWSEREEIETAQAYLESSEALYNQYMKEVGSPPLDPTERFLPEEEKLTEQERSKRFEKVYTHNLYYLAQVYQHLEMFEKAAHYCHSTLKRQLEHNAYHPIEWAINAATLSQFYINKLCFMEARHCLSAANVIFGQTGKISATEDTPEAEGEVPELYHQRKGEIARCWIKYCLTLMQNAQLSMQDNIGELDLDKQSELRALRKKELDEEESIRKKAVQFGTGELCDAISAVEEKVSYLRPLDFEEARELFLLGQHYVFEAKEFFQIDGYVTDHIEVVQDHSALFKVLAFFETDMERRCKMHKRRIAMLEPLTVAAAAAAYLLVNRQIQFEIAHAYYDMMDLKVAIADRLRDPDSHIVKKINNLNKSALKYYQLFLDSLRDPNKVFPEHIGEDVLRPAMLAKFRVARLYGKIITADPKKELENLATSLEHYKFIVDYCEKHPEAAQEIEVELELSKEMVSLLPTKMERFRTKMALT
notes: The methods tell the construction of mCherry-KIFBP-L14^m only, not of GST-KIFBP-L14^m; also called GST-KIFBP-L14^m; source: E. coli BL21-DE3, purified (glutathione-Sepharose, PreScission cleavage, Superdex 200)
